The assay concerns the target Clostridioides difficile transferase B component, CDTb_(45-876), activated with trypsin (Clostridioides difficile) (UniProt O32739). The experiment in a line: SDS-PAGE of SDS-resistant oligomers.

With “Clostridioides difficile transferase B component, CDTb_(45-876), activated with trypsin (from UniProt O32739 45-876) (natural protein)”, the fold enhancement of oligomerization with 2.5 M ethanol over water was found to be 7.5 fold.

The record behind these values is publication PMC12303382.
